Source: patent US20080213836

How the values were obtained:
[1] = biological target: T1, Boc-Glu(OBzl)-Ala-Arg-MCA
T1 chain: EAR

[2] = biological target: D4K-cleavage site-containing control protein (Novagen)
[3] = biological target: T2, Gly-Asp-Asp-Asp-Asp-Lys-β-naphthylamide
T2 chain: GDDDDK

[4] = biological target: Human plasma fibronectin, P02751
[5] = biological target: T3, Pro-Phe-Arg-MCA
T3 chain: PFR

[6] = biological target: T4, Z-Phe-Arg-MCA
T4 chain: FR

[7] = biological target: gelatin
[8] = biological target: human single-chain tPA fusion protein with N-terminal His-tag/EP-cleavage site, P00750
Chain of human single-chain tPA fusion protein with N-terminal His-tag/EP-cleavage site, P00750 (P00750 whole entry, looked up, the tested form may be a part): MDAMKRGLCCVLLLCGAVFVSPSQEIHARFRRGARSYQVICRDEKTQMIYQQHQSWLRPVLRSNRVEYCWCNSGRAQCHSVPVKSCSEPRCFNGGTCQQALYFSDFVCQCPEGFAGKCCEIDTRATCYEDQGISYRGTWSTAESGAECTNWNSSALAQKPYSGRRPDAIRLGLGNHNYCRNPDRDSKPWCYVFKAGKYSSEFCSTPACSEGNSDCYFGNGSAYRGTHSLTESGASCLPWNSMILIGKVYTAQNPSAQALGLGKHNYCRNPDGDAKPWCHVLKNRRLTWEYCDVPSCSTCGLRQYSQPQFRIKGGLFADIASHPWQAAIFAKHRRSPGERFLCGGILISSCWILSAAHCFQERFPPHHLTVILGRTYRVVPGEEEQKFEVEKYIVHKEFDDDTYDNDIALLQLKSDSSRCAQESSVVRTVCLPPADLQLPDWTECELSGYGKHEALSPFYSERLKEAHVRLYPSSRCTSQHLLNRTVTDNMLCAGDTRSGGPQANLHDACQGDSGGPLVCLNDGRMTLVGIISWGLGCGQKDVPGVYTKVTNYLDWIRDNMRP

[9] = biological target: mouse laminin
[10] = biological target: recombinant fusion protein of Medaka gelatinase A
[11] = biological target: recombinant fusion protein of Medaka trypsinogen
[12] = biological target: T5, recombinant fusion protein of human kallikrein 8 (hK8), O60259
T5 sequence (O60259 whole entry, looked up): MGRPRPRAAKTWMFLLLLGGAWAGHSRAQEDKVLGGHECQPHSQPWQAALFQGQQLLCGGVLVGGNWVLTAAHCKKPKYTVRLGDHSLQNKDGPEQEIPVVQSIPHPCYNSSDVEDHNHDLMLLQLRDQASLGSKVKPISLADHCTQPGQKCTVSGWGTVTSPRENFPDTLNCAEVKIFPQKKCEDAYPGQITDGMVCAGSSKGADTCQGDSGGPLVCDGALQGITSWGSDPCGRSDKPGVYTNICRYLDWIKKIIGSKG

[13] = biological target: T6, human fibrinogen, P02671
T6 chain 1: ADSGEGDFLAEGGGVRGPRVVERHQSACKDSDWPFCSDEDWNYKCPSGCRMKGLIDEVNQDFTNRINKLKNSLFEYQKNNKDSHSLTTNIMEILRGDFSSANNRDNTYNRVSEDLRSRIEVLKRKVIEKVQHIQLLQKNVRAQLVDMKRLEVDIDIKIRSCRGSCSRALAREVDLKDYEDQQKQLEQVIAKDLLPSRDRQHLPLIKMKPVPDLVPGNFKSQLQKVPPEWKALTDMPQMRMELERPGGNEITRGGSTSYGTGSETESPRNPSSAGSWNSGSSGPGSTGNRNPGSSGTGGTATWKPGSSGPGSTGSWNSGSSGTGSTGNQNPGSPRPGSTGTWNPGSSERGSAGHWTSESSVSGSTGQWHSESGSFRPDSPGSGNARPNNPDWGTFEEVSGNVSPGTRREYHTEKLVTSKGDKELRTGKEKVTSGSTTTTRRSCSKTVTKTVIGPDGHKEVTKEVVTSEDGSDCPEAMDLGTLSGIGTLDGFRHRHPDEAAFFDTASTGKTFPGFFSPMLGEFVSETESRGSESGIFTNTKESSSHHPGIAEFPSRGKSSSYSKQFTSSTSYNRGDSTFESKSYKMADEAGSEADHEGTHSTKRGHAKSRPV
T6 chain 2: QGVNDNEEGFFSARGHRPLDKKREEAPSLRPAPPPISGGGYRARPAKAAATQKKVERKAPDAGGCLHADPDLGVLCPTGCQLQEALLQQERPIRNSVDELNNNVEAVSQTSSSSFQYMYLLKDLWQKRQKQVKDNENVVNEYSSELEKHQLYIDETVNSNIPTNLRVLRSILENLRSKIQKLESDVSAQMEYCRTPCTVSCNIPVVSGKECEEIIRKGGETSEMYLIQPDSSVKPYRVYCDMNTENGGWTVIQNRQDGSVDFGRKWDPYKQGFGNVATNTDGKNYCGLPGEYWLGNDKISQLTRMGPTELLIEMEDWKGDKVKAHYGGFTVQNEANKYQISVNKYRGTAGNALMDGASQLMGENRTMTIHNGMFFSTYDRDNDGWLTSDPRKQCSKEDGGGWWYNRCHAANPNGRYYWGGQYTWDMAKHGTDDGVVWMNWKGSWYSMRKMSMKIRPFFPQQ
T6 chain 3: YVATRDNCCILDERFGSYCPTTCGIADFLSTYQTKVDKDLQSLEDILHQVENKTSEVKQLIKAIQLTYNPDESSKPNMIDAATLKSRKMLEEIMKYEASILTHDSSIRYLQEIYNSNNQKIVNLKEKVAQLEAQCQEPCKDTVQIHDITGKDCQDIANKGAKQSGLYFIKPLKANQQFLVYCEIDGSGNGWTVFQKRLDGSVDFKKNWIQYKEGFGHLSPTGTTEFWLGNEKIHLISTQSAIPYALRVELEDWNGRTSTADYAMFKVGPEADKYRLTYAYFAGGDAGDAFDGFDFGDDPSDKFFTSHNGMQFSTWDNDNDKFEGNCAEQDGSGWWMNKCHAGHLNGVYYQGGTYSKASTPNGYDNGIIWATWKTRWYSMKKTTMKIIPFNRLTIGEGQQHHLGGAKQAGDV

[14] = biological target: T7, human high-molecular-weight (HMW) kininogen, P01042
T7 chain: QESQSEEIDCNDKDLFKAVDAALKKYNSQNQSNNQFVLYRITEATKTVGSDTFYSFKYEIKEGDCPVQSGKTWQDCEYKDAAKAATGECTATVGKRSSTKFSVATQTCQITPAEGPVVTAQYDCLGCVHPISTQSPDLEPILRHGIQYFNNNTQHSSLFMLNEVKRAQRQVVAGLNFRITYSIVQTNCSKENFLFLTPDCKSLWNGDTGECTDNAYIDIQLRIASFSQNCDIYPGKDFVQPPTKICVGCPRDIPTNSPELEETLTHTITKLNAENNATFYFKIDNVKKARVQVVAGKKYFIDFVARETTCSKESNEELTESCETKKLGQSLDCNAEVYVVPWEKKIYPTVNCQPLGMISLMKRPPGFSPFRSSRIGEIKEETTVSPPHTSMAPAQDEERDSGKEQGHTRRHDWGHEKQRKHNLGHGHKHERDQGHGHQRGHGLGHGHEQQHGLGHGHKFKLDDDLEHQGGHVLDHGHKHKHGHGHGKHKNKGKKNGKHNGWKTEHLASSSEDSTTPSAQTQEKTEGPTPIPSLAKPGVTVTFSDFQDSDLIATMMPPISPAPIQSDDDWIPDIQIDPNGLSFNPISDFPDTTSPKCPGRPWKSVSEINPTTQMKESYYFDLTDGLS

Chain of Human plasma fibronectin, P02751 (P02751 other isoform, or with tags, fused parts or gaps): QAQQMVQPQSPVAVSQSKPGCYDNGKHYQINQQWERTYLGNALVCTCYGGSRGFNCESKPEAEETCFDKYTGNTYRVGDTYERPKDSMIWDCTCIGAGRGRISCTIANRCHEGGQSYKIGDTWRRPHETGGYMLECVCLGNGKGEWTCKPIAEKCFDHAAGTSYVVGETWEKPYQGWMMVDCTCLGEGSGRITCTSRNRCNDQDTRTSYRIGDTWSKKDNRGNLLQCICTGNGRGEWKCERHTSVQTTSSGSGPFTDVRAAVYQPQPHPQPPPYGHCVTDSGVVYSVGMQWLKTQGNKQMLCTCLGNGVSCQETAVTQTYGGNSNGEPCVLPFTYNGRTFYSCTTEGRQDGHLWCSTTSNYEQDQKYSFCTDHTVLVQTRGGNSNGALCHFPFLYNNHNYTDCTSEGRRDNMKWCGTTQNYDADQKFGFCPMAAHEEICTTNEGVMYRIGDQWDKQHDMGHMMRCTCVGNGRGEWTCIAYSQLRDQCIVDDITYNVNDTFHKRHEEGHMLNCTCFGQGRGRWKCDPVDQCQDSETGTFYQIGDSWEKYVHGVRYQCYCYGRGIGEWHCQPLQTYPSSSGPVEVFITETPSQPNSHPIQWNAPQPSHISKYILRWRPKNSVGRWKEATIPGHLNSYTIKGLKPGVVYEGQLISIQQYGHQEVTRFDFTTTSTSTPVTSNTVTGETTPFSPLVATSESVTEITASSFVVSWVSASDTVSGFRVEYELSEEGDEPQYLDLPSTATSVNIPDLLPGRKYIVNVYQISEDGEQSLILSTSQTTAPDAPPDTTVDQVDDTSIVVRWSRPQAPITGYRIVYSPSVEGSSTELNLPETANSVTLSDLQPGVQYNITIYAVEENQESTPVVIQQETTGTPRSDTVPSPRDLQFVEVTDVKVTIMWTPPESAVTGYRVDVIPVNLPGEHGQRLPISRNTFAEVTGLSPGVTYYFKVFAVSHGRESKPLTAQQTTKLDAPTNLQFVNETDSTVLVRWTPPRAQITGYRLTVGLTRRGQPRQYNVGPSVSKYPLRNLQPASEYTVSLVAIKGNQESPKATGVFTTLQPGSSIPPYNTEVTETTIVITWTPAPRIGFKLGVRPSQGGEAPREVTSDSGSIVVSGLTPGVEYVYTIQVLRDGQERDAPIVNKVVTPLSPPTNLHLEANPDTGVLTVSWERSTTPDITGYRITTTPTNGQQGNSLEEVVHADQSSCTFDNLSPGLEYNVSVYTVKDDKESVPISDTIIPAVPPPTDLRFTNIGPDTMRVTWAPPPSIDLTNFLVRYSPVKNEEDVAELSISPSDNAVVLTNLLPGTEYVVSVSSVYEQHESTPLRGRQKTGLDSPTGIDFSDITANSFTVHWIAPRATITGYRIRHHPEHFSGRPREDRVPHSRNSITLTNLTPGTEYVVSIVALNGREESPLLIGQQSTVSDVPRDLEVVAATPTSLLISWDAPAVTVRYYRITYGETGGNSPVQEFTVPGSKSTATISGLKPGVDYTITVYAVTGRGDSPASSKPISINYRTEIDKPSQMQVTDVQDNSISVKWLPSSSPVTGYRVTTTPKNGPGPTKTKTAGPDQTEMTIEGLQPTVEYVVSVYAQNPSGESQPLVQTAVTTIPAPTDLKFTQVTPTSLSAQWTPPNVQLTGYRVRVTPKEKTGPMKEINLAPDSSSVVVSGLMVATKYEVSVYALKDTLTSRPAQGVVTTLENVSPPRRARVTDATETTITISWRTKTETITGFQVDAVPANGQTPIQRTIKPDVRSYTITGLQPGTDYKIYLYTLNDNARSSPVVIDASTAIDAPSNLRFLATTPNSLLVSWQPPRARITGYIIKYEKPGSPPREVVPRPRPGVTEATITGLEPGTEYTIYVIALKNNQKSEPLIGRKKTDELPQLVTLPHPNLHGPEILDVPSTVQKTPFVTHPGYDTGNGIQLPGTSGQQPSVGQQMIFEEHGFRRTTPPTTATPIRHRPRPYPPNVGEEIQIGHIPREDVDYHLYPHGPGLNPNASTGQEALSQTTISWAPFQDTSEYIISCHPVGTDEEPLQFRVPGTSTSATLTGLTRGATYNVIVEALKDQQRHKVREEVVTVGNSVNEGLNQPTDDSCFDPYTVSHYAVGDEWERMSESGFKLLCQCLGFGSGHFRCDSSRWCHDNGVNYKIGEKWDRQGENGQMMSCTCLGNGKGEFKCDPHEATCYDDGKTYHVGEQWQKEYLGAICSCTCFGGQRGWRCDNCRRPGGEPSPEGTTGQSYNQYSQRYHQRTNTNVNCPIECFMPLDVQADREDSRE

B1: Medaka EP-1 serine protease domain (wild-type) (protein)
chain: VVGGVNAEKGAWPWMVSLHWRGRHGCGASLIGRDWLLTAAHCVYGKNTHLQYWSAVLGLHAQSSMNSQEVQIRQVDRIIINKNYNRRTKEADIAMMHLQQPVNFTEWVLPVCLASEDQHFPAGRRCFIAGWGRDAEGGSLPDILQEAEVPLVDQDECQRLLPEYTFTSSMLCAGYPEGGVDSCQGDSGGPLMCLEDARWTLIGVTSFGVGCGRPERPGAYARVSAFTSWIAETRRSSFSDLD
- Km [1]: 200 µM
- amidolytic activity [1]: much lower than those of the EP proteases of mammalian origin
- kcat [1]: 0.112 s⁻¹
- kcat/Km (mM^-1 · min^-1) [1]: 34
- cleavage of the fusion protein (SDS-PAGE) [2]: the Medaka protease specifically cleaved the fusion protein to generate two polypeptides having expected molecular masses of 16- and 32-kDa
- Km [3]: 700 µM
- cleavage rate [3]: cleaved GD4K-βNA at a rate comparable to those of the porcine and bovine enzymes
- enzyme activity for GD4K-βNA [3]: EP-1 was approximately three times more active than EP-2
- kcat [3]: 15.7 s⁻¹
- kcat/Km (mM^-1 · min^-1) [3]: 1300
- proteolytic activity (SDS-PAGE) [4]: Little or no hydrolysis was observed with the fish enzyme for the proteins
- Km [5]: 10000 µM
- amidolytic activity [5]: much lower than those of the EP proteases of mammalian origin
- kcat [5]: 2.33 s⁻¹
- kcat/Km (mM^-1 · min^-1) [5]: 14
- Km [6]: 100 µM
- amidolytic activity [6]: much lower than those of the EP proteases of mammalian origin
- kcat [6]: 0.0483 s⁻¹
- kcat/Km (mM^-1 · min^-1) [6]: 29
- proteolytic activity (gelatin zymography) [7]: Little or no hydrolysis was observed with the fish enzyme for the proteins
- cleavage of the fusion protein (SDS-PAGE/Western blot) [8]: The protein samples treated with the Medaka wild-type or mutant EP proteases, but not with mammalian ones, showed two polypeptides (53- and 55-kDa)
- proteolytic activity (SDS-PAGE) [9]: Little or no hydrolysis was observed with the fish enzyme for the proteins
- cleavage of the fusion protein (SDS-PAGE) [10]: A 60-kDa fusion protein was converted by wild-type or mutant proteases to a 55-kDa protein
- conversion of trypsinogen to active trypsin [11]: The trypsinogen was converted to active trypsin by EP-1 faster than by EP-2
- cleavage of the fusion protein (SDS-PAGE) [12]: Digestion with Medaka wild-type and mutant EP proteases generated 31.5-kDa active hK8 by cleaving the D4K sequence

B2: Medaka EP-1 serine protease domain mutant E173A (protein)
chain: VVGGVNAEKGAWPWMVSLHWRGRHGCGASLIGRDWLLTAAHCVYGKNTHLQYWSAVLGLHAQSSMNSQEVQIRQVDRIIINKNYNRRTKEADIAMMHLQQPVNFTEWVLPVCLASEDQHFPAGRRCFIAGWGRDAEGGSLPDILQEAEVPLVDQDACQRLLPEYTFTSSMLCAGYPEGGVDSCQGDSGGPLMCLEDARWTLIGVTSFGVGCGRPERPGAYARVSAFTSWIAETRRSSFSDLD
- Km [1]: 1000 µM
- enzyme activity against wild-type [1]: The same held true for all the other mutants except for F144A
- kcat [1]: 0.167 s⁻¹
- kcat/Km (mM^-1 · min^-1) [1]: 10
- Km [3]: 300 µM
- enzyme activity against wild-type [3]: The same held true for all the other mutants except for F144A
- kcat [3]: 5.33 s⁻¹
- kcat/Km (mM^-1 · min^-1) [3]: 1100
- hydrolysis [4]: Neither human fibronectin nor laminin was hydrolyzed by the mutants (data not shown)
- Km [5]: 1000 µM
- enzyme activity against wild-type [5]: The same held true for all the other mutants except for F144A
- kcat [5]: 0.153 s⁻¹
- kcat/Km (mM^-1 · min^-1) [5]: 9
- Km [6]: 400 µM
- enzyme activity against wild-type [6]: The same held true for all the other mutants except for F144A
- kcat [6]: 0.0383 s⁻¹
- kcat/Km (mM^-1 · min^-1) [6]: 6
- nonspecific proteolytic activity [13]: this mutant enzyme still retained a low nonspecific proteolytic activity for protein substrates (HMW kininogen and fibrinogen)
- nonspecific proteolytic activity (SDS-PAGE) [13]: The mutant proteases had lower nonspecific proteolytic activity for ... human fibrinogen
- nonspecific proteolytic activity [14]: this mutant enzyme still retained a low nonspecific proteolytic activity for protein substrates (HMW kininogen and fibrinogen)
- nonspecific proteolytic activity (SDS-PAGE) [14]: The mutant proteases had lower nonspecific proteolytic activity for human HMW kininogen
- D4K cleaving activity [8]: no serious reduction of the D4K cleaving activity for fusion proteins (gelatinase A, hK8, and tPA)
- hydrolysis [9]: Neither human fibronectin nor laminin was hydrolyzed by the mutants (data not shown)
- D4K cleaving activity [10]: no serious reduction of the D4K cleaving activity for fusion proteins (gelatinase A, hK8, and tPA)
- activation of trypsinogen [11]: the other mutants activated trypsinogen at a reduced rate
- conversion of trypsinogen to active enzyme [11]: A total of 12 mutants could convert the recombinant Medaka trypsinogen to its active enzyme (data not shown)
- D4K cleaving activity [12]: no serious reduction of the D4K cleaving activity for fusion proteins (gelatinase A, hK8, and tPA)
